Measured values as given in FireProtDB (doi:10.1016/0301-4622(94)00150-i).
Where “and” joins values, the source holds several entries; their conditions need not be identical. Equal entries are not always repeated.

Conditions: Aspergillus flavus, Thermal, DSC, reversible: No, whole UniProt chain shown
[1] = pH 6.95, Sodium phosphate 50 mM
[2] = pH 7.45, Sodium phosphate 50 mM

B1: Uricase wild type, Q00511 (protein)
chain: MSAVKAARYGKDNVRVYKVHKDEKTGVQTVYEMTVCVLLEGEIETSYTKADNSVIVATDSIKNTIYITAKQNPVTPPELFGSILGTHFIEKYNHIHAAHVNIVCHRWTRMDIDGKPHPHSFIRDSEEKRNVQVDVVEGKGIDIKSSLSGLTVLKSTNSQFWGFLRDEYTTLKETWDRILSTDVDATWQWKNFSGLQEVRSHVPKFDATWATAREVTLKTFAEDNSASVQATMYKMAEQILARQQLIETVEYSLPNKHYFEIDLSWHKGLQNTGKNAEVFAPQSDPNGLIKCTVGRSSLKSKL
Tm [1]: 65 °C | unfolding enthalpy (calorimetric) [1]: 16.3 kcal/mol | unfolding enthalpy (calorimetric) (pH 7.2, Sodium phosphate 50 mM): 75.8 kcal/mol and 48.1 kcal/mol | unfolding enthalpy (calorimetric) (pH 7.25, Sodium phosphate 50 mM): 72 kcal/mol and 53.3 kcal/mol | Tm [2]: 68.4 °C | unfolding enthalpy (calorimetric) [2]: 57.9 kcal/mol | Tm (pH 7.8, Sodium phosphate 50 mM): 50.1 °C | unfolding enthalpy (calorimetric) (pH 7.8, Sodium phosphate 50 mM): 82.8 kcal/mol | unfolding enthalpy (calorimetric) (pH 8.5, Tris-HCl 50 mM): 78.9 kcal/mol and 29.7 kcal/mol | Tm (pH 8.8, Tris-HCl 50 mM): 49.9 °C | unfolding enthalpy (calorimetric) (pH 8.8, Tris-HCl 50 mM): 80.1 kcal/mol | unfolding enthalpy (calorimetric) (pH 9.05, Tris-HCl 50 mM): 76.8 kcal/mol and 26.8 kcal/mol | unfolding enthalpy (calorimetric) (pH 9.5, carbonate 50 mM): 82.3 kcal/mol and 59.1 kcal/mol
